Assay results taken from patent publication US20070243170A1 (UNIVERSITY OF CHICAGO, published 2007).

Assays:
[1] = target: Nectin-1 (HveC) (UniProt Q15223); assay: cell-based or functional assay
[2] = target: HveA (formerly HveM) (UniProt Q92956); assay: cell-based or functional assay
[3] = target: wild-type gD1-60 polypeptide (residues 1-60 of mature gD; plasmid pGG5414) (herpes simplex virus 1, UniProt P36318 26-85); assay: co-immunoprecipitation with anti-Myc from HEK293 cells co-transfected with pGG5417+pGG5414

IL13-gD chimeric glycoprotein D of recombinant virus R5144 (IL13 in the place of gD residues 1-32, V37S)
Replication of R5144 in J-Nectin cells (virus yield) [1]: 50 | Replication of R5144 in J-HveA cells (virus yield) [2]: 300

IL13-gD chimeric glycoprotein D of recombinant virus R5141 (IL13 in the place of gD residues 1-32, V34S)
Replication of R5141 in J-Nectin cells (virus yield) [1]: 70 | Replication of R5141 in J-HveA cells (virus yield) [2]: 40

B1: gD219-314 polypeptide (mature gD residues 219-314, without transmembrane and cytoplasmic domains, Myc epitope at the C-terminus; plasmid pGG5417) (other)
chain: MLPRFIPENQRTVAVYSLKIAGWHGPKAPYTSTLLPPELSETPNATQPELAPEDPEDSALLEDPVGTVVPQIPPNWHIPSIQDAATPYHPPATPNN
notes: Expressed in HEK293 cells under the CMV promoter; also called C-terminal domain of gD; R5417
binding result [3]: no binding
